Source: paper PMC3328432, “Molecular Requirements for Peroxisomal Targeting of Alanine-Glyoxylate Aminotransferase as an Essential Determinant in Primary Hyperoxaluria Type 1” (PLoS Biology, 2012)

Target: AGT of all performed ITC measurements (wild type and AGT mutants of Table S1)
Assay: ITC; 25–46 µM AGT as sample in the cell, 250–460 µM Pex5p(C) as titration ligand, 27 injections of 10 µl; 25°C; 100 mM HEPES pH 7.5, 150 mM NaCl, 2 mM ß-mercaptoethanol

stoichiometry N: 1.02
Substance: C-terminal cargo-binding segment of human Pex5p (residues 315-639) (from UniProt P50542 315-639) (domain or fragment)
